# PMC7522779
# Molecular target: Pex14p-S266D, Gal4p fusion protein for yeast two-hybrid (S. cerevisiae) (UniProt P53112)
# Test: two-hybrid; liquid ß-galactosidase assay with 2-nitrophenyl β-D-galactopyranoside; GAL4 BD and AD fusions in strain PCY2 pex14Δ; triplicate measurements of three independent transformants
# Sequence of UniProt P53112 (P53112 whole entry S266D, the tested form may be a part): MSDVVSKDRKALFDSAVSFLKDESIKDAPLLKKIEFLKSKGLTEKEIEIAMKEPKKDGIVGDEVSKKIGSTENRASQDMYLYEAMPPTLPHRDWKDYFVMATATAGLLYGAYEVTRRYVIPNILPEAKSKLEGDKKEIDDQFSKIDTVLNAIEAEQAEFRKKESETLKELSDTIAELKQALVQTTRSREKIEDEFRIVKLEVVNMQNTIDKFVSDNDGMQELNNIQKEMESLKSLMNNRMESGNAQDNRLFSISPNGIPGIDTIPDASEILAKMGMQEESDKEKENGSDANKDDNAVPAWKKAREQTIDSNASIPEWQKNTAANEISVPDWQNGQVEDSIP
substance,measurement,value
"Pex13p, Gal4p fusion protein for yeast two-hybrid (from UniProt P80667 1-386) (natural protein)",binding as percent of wild-type level (ß-galactosidase activity) (% of wild-type levels),< 50
